# Reference: US20210253718A1, “FRIZZLED5 PROTEIN-BINDING AGENTS” (Modmab Therapeutics Corporation, priority 2016, published 2021)
# Tests used:
# FZD5 CRD = target: T1, FZD5 CRD (Homo sapiens, UniProt Q13467); test: Immunofluorescence of anti-FZD5 Fab binding to CHO cells overexpressing Frizzled CRD; parameters: key: −: no binding; +: very weak binder; ++: weak binder; +++: good binder; ++++: very good binder
# T1 construct: K29-T156; GPI anchor signal (C); expressed in transfected cells; host or cells: CHO cells, lentiviral pLenti-puro
# T1 sequence (Q13467 29-156): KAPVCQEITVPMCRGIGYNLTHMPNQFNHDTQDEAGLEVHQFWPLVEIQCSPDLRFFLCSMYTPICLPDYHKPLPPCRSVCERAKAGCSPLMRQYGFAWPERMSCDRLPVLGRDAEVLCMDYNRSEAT
# Procedure, shortened: (§1)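 CHO panel, 10 lines, each w/ one human FZD CRD-myc-GPI (lentiviral). Anti-FZD5 Fabs applied; surface binding scored by IF, cross-checked by FACS.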
# FZD8 CRD = target: T2, FZD8 CRD (Homo sapiens, UniProt Q9H461); test: as above; parameters: key: −: no binding; +: very weak binder; ++: weak binder; +++: good binder; ++++: very good binder
# T2 construct: K31-D155; GPI anchor signal (C); expressed in transfected cells; host or cells: CHO cells, lentiviral pLenti-puro
# T2 sequence (Q9H461 31-155): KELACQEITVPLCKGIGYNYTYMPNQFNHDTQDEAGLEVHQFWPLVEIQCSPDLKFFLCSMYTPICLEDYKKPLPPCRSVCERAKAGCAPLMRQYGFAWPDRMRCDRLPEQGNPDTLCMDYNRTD
# Procedure, shortened: as §1
# FZD2 CRD = target: T3, FZD2 CRD (Homo sapiens, UniProt Q14332); test: as above; parameters: key: −: no binding; +: very weak binder; ++: weak binder; +++: good binder; ++++: very good binder
# T3 construct: D35-P161; GPI anchor signal (C); expressed in transfected cells; host or cells: CHO cells, lentiviral pLenti-puro
# Procedure, shortened: as §1
# FZD6 CRD = target: T4, FZD6 CRD (Homo sapiens, UniProt O60353); test: as above; parameters: key: −: no binding; +: very weak binder; ++: weak binder; +++: good binder; ++++: very good binder
# T4 construct: S20-P146; GPI anchor signal (C); expressed in transfected cells; host or cells: CHO cells, lentiviral pLenti-puro
# T4 sequence (O60353 20-146): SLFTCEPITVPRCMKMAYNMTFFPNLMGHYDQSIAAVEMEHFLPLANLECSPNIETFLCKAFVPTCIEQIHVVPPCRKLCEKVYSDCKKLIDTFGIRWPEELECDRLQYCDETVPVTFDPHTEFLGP
# Procedure, shortened: as §1
# FZD7 CRD = target: T5, FZD7 CRD (Homo sapiens, UniProt O75084); test: as above; parameters: key: −: no binding; +: very weak binder; ++: weak binder; +++: good binder; ++++: very good binder
# T5 construct: D45-S169; GPI anchor signal (C); expressed in transfected cells; host or cells: CHO cells, lentiviral pLenti-puro
# Procedure, shortened: as §1
# HPAFII cells = test: Effect of anti-FZD5 Fabs on proliferation of pancreatic cancer cell lines (percent growth inhibition); format: cell-based, human; conditions: for percent growth inhibition, HPAFII 2 μg/ml: Fab 2 μg/ml; for percent growth inhibition, HPAFII 10 μg/ml: Fab 10 μg/ml
# Description: (§2) The effect of presently disclosed anti-FZD5 Fabs on proliferation of RNF43 loss-of-function mutant pancreatic cancer cell lines HPAFII, PATU8988S and ASPC-1; and on pancreatic cancer cell line RWP1, was tested at […] and 10 μg/ml.
# RWP1 cells [1] = test: as above; format: cell-based, human; conditions: Fab 10 μg/ml
# Description: as §2
# PATU8988S cells [2] = test: as above; format: cell-based, human; conditions: Fab 10 μg/ml
# Description: as §2
# ASPC-1 cells [3] = test: as above; format: cell-based, human; conditions: Fab 10 μg/ml
# Description: as §2
# RWP1 cells [4] = test: as above; format: cell-based, human; conditions: Fab 2 μg/ml
# PATU8988S cells [5] = test: as above; format: cell-based, human; conditions: Fab 2 μg/ml
# [6] = test system: CHO cells not expressing Frizzled CRD; test: Flow cytometry of anti-FZD5 Fab binding to CHO cells not expressing Frizzled CRD (background)
# Source text: The binding of anti-FZD5 Fabs to cell surface-expressed Frizzled protein was further determined for each member of the Frizzled family via flow cytometry and immunofluorescence analysis of a panel of 10 CHO cell lines, each ectopically over-expressing the extracellular cysteine-rich domain (CRD) of a different Frizzled protein family member.
# ASPC-1 cells [7] = test: Effect of anti-FZD5 Fabs on proliferation of pancreatic cancer cell lines (percent growth inhibition); format: cell-based, human; conditions: Fab 2 μg/ml
Molecule,"Immunofluorescence binding, Frizzled CRD overexpressed on CHO cells: FZD5 (FZD5 CRD)","Immunofluorescence binding, Frizzled CRD overexpressed on CHO cells: FZD8 (FZD8 CRD)","Immunofluorescence binding, Frizzled CRD overexpressed on CHO cells: FZD2 (FZD2 CRD)","Immunofluorescence binding, Frizzled CRD overexpressed on CHO cells: FZD6 (FZD6 CRD)","Immunofluorescence binding, Frizzled CRD overexpressed on CHO cells: FZD7 (FZD7 CRD)","percent growth inhibition, HPAFII 2 μg/ml (HPAFII cells)","percent growth inhibition, HPAFII 10 μg/ml (HPAFII cells)","percent growth inhibition, RWP1 10 μg/ml (RWP1 cells [1])","percent growth inhibition, PATU8988s 10 μg/ml (PATU8988S cells [2])","percent growth inhibition, ASPC-1 10 μg/ml (ASPC-1 cells [3])","percent growth inhibition, RWP1 2 μg/ml (RWP1 cells [4])","percent growth inhibition, PATU8988s 2 μg/ml (PATU8988S cells [5])","Median fluorescence, Frizzled CRD overexpressed on CHO cells: None [6]","percent growth inhibition, ASPC-1 2 μg/ml (ASPC-1 cells [7])"
"Fab-2906: anti-FZD5 Fab with antibody variable region Fv-2906; CDR SEQ ID NOs: 35, 36, 45, 84, 121, 158 (antibody, V domains shown) VH: EVQLVESGGGLVQPGGSLRLSCAASGFNFSSSSIHWVRQAPGKGLEWVAYISSSYGYTYYADSVKGRFTISADTSKNTAYLQMNSLRAEDTAVYYCARTVRGSKKPYFSGWAMDYWGQGTLVTVSS VL: DIQMTQSPSSLSASVGDRVTITCRASQSVSSAVAWYQQKPGKAPKLLIYSASSLYSGVPSRFSGSRSGTDFTLTISSLQPEDFATYYCQQWSWGFLITFGQGTKVEIK",++++,+,−,−,+,15.24%,14.98%,5.47%,−30.04%,35.20%,1.19%,−17.42%,3.89,20.56%
"Fab-2910: anti-FZD5 Fab with antibody variable region Fv-2910; CDR SEQ ID NOs: 35, 36, 49, 88, 125, 162 (antibody, V domains shown) VH: EVQLVESGGGLVQPGGSLRLSCAASGFNISYSYMHWVRQAPGKGLEWVASIYSSSSSTSYADSVKGRFTISADTSKNTAYLQMNSLRAEDTAVYYCARGAMDYWGQGTLVTVSS VL: DIQMTQSPSSLSASVGDRVTITCRASQSVSSAVAWYQQKPGKAPKLLIYSASSLYSGVPSRFSGSRSGTDFTLTISSLQPEDFATYYCQQWYGSHLITFGQGTKVEIK",++++,−,−,−,+,26.86%,41.81%,54.51%,−12.84%,41.71%,71.49%,8.48%,2.92,39.05%
"Fab-2909: anti-FZD5 Fab with antibody variable region Fv-2909; CDR SEQ ID NOs: 35, 36, 48, 87, 124, 161 (antibody, V domains shown) VH: EVQLVESGGGLVQPGGSLRLSCAASGFNISSSYMHWVRQAPGKGLEWVASISSSSGYTSYADSVKGRFTISADTSKNTAYLQMNSLRAEDTAVYYCARTVRGSKKPYFSGWAMDYWGQGTLVTVSS VL: DIQMTQSPSSLSASVGDRVTITCRASQSVSSAVAWYQQKPGKAPKLLIYSASSLYSGVPSRFSGSRSGTDFTLTISSLQPEDFATYYCQQSWSYHYLITFGQGTKVEIK",+++,−,−,−,+,2.87%,−2.57%,14.89%,−16.04%,−9.30%,12.89%,−9.95%,3.4,−6.84%
"Fab-2912: anti-FZD5 Fab with antibody variable region Fv-2912; CDR SEQ ID NOs: 35, 36, 51, 90, 127, 164 (antibody, V domains shown) VH: EVQLVESGGGLVQPGGSLRLSCAASGFNISYSYIHWVRQAPGKGLEWVASISSSSGYTSYADSVKGRFTISADTSKNTAYLQMNSLRAEDTAVYYCARTVRGSKKPYFSGWAMDYWGQGTLVTVSS VL: DIQMTQSPSSLSASVGDRVTITCRASQSVSSAVAWYQQKPGKAPKLLIYSASSLYSGVPSRFSGSRSGTDFTLTISSLQPEDFATYYCQQFYFPYLITFGQGTKVEIK",+++,+,+++,−,++++,7.76%,−5.41%,27.25%,−25.71%,1.76%,15.55%,1.11%,4.49,6.93%
"Fab-2907: anti-FZD5 Fab with antibody variable region Fv-2907; CDR SEQ ID NOs: 35, 36, 46, 85, 122, 159 (antibody, V domains shown) VH: EVQLVESGGGLVQPGGSLRLSCAASGFNIYSSYMHWVRQAPGKGLEWVASISSYSGSTYYADSVKGRFTISADTSKNTAYLQMNSLRAEDTAVYYCARSSWGAYIVSYGFDYWGQGTLVTVSS VL: DIQMTQSPSSLSASVGDRVTITCRASQSVSSAVAWYQQKPGKAPKLLIYSASSLYSGVPSRFSGSRSGTDFTLTISSLQPEDFATYYCQQVGYWWGLITFGQGTKVEIK",++++,+,−,−,+,15.15%,14.20%,28.57%,−42.69%,23.78%,8.52%,−12.76%,3.43,10.02%
